Tests used:
[1] = target: zebrafish class B G-protein coupled receptor (zfGPCR), dual zfGLP-1R/GCGR (zebrafish (Danio rerio)); test: radioligand binding
[2] = target: zebrafish class B G-protein coupled receptor (zfGPCR), dual zfGLP-1R/GCGR (zebrafish (Danio rerio)); test: radioligand binding; competitive displacement of 125I-hGLP-1(7-36)amide (100,000 cpm/well) from recombinant zfGPCR on transiently transfected COS-7 cells in 24-well plates; cold peptide pM to μM in triplicate; 16-18 h at 4°C; IC50 by four-parameter logistic fit (Prism 4)
[3] = target: zebrafish class B G-protein coupled receptor (zfGPCR), dual zfGLP-1R/GCGR (zebrafish (Danio rerio)); test: radioligand binding; competitive displacement of 125I-exendin(9-39) (100,000 cpm/well) from recombinant zfGPCR on transiently transfected COS-7 cells in 24-well plates; cold peptide pM to μM in triplicate; 16-18 h at 4°C; IC50 by four-parameter logistic fit (Prism 4)

Sequence of human GLP-1(7-36)amide (hGLP-1) (P01275 98-127): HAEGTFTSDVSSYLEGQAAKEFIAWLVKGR
Sequence of human glucagon (P01275 53-81): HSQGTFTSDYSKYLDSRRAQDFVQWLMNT

| Substance | IC50 [1] [nM] | IC50 [2] [nM] | IC50 [3] [nM] |
| --- | --- | --- | --- |
| human GLP-1(7-36)amide (hGLP-1) (from UniProt P01275 98-127) (peptide) | 178 | 3.6 |  |
| zebrafish glucagon (peptide) | 106 | 2.4 |  |
| exendin(9-39) (peptide) |  | 5.8 | 4.21 |
| exendin-4 (from UniProt P26349 48-87) (peptide) |  | 0.48 | 1 |
| zebrafish GLP-1 (zfGLP-1) (peptide) | 290 | 2.1 |  |
| human glucagon (from UniProt P01275 53-81) (peptide) | 67 |  |  |

Source: paper PMC5145181, “Structural Mapping and Functional Characterization of Zebrafish Class B G-Protein Coupled Receptor (GPCR) with Dual Ligand Selectivity towards GLP-1 and Glucagon” (PLoS ONE, 2016)
